According to article PMC5505973:

Tested on: Tal7 (His-Tal7) (Xanthomonas oryzae pv. oryzicola RS105)
Assay: MST

Substance	Kd
Os09g29100 promoter MST fragment	2260 nM
Os12g42970 promoter MST fragment	2930 nM
